# Reference: PMC5340040
# No end group written: not given here.
# Assays:
# [1] = biological target: T1, CaATP-G-actin (rabbit skeletal muscle actin, monomer) (rabbit), P68135; assay: cross-linking; competition: 6 μM Fl-LL-37 and 0-16 μM histatin-3 or histatin-5 for transglutaminase cross-linking to 4 μM CaATP-G-actin, 22 °C; SDS-PAGE visualized by fluorescence; settings: remark: other sources report otherwise
# [2] = biological target: T1, CaATP-G-actin (rabbit skeletal muscle …); assay: cross-linking; bacterial transglutaminase (0.3-0.4 mg/ml) at 22 °C, 4 μM CaATP-G-actin or TG-G-actin with 4-8 μM peptide, 1 to 30 min, stopped by 1 mM cysteamine; 12% SDS-PAGE, Coomassie blue or fluorescence, densitometry; one series with 0-200 mM NaCl (1 min); settings: remark: other sources report otherwise
Binder,percent decrease of the cross-linking of 6 μM Fl-LL-37 to 4 μM G-actin at 3 μM histatin [1] [%],percent decrease of the extent of cross-linking with 200 mM NaCl [2] [%]
DSHAKRHHGYKRKFHEKHHSHRGY [Histatin-5],68,
"DSHAKRHHGYKRKFHEKHHSHRGY (also: FAM label, position not given here) [FAM labeled histatin-5]",,> 70
